In this assay the target is C-terminal domain of catalase-3 (CAT-3) of Neurospora crassa (TDC3) (Neurospora crassa) (UniProt Q9C169). The experiment in a line: SEC; Superdex 75 HR 10/300 on FPLC; TDC3 1 mg/mL injected, 0.75 mL/min; mass from gel filtration standards.

Data on one substance can be found in publication PMC10135305.

On to “C-terminal domain of catalase-3 (CAT-3) of Neurospora crassa (TDC3) (from UniProt Q9C169 568-719) (domain or fragment)”, for which the stoichiometry N (as a rule, a count of units in the complex or per binding partner) came to 2.
